Measurements taken from ChEMBL document CHEMBL1134791, “2- and 3-substituted 1,4-naphthoquinone derivatives as subversive substrates of trypanothione reductase and lipoamide dehydrogenase from Trypanosoma cruzi: synthesis and correlation between redox cycling activities and in vitro cytotoxicity” (J Med Chem, 2001).

What was measured:
[1] = substrate: CC1=C(CCCCCC(=O)NCCCNCCCNC(=O)CCCCCC2=C(C)C(=O)c3ccccc3C2=O)C(=O)c2ccccc2C1=O; test: (§1) Vmax is the maximum velocity of the TcTR (Trypanosoma cruzi trypanothione reductase) catalyzed NADH oxidation.
[2] = substrate: CC1=C(CCCCC(=O)NCCCN2CCN(CCCNC(=O)CCCCC3=C(C)C(=O)c4cccc(O)c4C3=O)CC2)C(=O)c2c(O)cccc2C1=O; test: as §1
[3] = substrate: CC1=C(CCCCCC(=O)NCCCCNCCCNC(=O)CCCCCC2=C(C)C(=O)c3cccc(O)c3C2=O)C(=O)c2c(O)cccc2C1=O; test: Vmax is the maximum velocity of the TcTR (Trypanosoma cruzi trypanothione reductase) catalyzed NADPH oxidation.
[4] = substrate: CC1=C(CCCC(=O)NCCCN2CCN(CCCNC(=O)CCCC3=C(C)C(=O)c4cccc(O)c4C3=O)CC2)C(=O)c2c(O)cccc2C1=O; test: as above
[5] = substrate: CC1=C(CCC(=O)NCCCN2CCN(CCCNC(=O)CCC3=C(C)C(=O)c4cccc(O)c4C3=O)CC2)C(=O)c2c(O)cccc2C1=O; test: as above
[6] = substrate: CC1=C(CCCCCC(=O)NCCCN2CCN(CCCNC(=O)CCCCCC3=C(C)C(=O)c4cccc(O)c4C3=O)CC2)C(=O)c2c(O)cccc2C1=O; test: as above
[7] = substrate: CC1=C(CCCCC(=O)NCCCNCCCNC(=O)CCCCC2=C(C)C(=O)c3cccc(O)c3C2=O)C(=O)c2c(O)cccc2C1=O; test: as above
[8] = substrate: CC1=CC(=O)c2ccccc2C1=O; test: as above
[9] = substrate: CC1=C(CCCC(=O)NCCCN2CCN(CCCNC(=O)CCCC3=C(C)C(=O)c4ccccc4C3=O)CC2)C(=O)c2ccccc2C1=O; test: as above
[10] = substrate: CC1=CC(=O)c2c(O)cccc2C1=O; test: as above
[11] = substrate: CC1=C(CCC(=O)NCCCNCCCNC(=O)CCC2=C(C)C(=O)c3cccc(O)c3C2=O)C(=O)c2c(O)cccc2C1=O; test: as above
[12] = substrate: CC1=C(CCCC(=O)NCCCCNCCCNC(=O)CCCC2=C(C)C(=O)c3ccccc3C2=O)C(=O)c2ccccc2C1=O; test: as above
[13] = substrate: CC1=C(CCC(=O)NCCCCNCCCNC(=O)CCC2=C(C)C(=O)c3cccc(O)c3C2=O)C(=O)c2c(O)cccc2C1=O; test: as above
[14] = substrate: CC1=C(CCCC(=O)NCCCNCCCNC(=O)CCCC2=C(C)C(=O)c3ccccc3C2=O)C(=O)c2ccccc2C1=O; test: as above
[15] = substrate: CC1=C(CCCCCC(=O)NCCCCNCCCNC(=O)CCCCCC2=C(C)C(=O)c3ccccc3C2=O)C(=O)c2ccccc2C1=O; test: as above
[16] = substrate: CC1=C(CCCCCC(=O)NCCCN2CCN(CCCNC(=O)CCCCCC3=C(C)C(=O)c4ccccc4C3=O)CC2)C(=O)c2ccccc2C1=O; test: as above
[17] = substrate: CC1=C(CCCCC(=O)NCCCN2CCN(CCCNC(=O)CCCCC3=C(C)C(=O)c4ccccc4C3=O)CC2)C(=O)c2ccccc2C1=O; test: as above
[18] = substrate: CC1=C(CCC(=O)NCCCN2CCN(CCCNC(=O)CCC3=C(C)C(=O)c4ccccc4C3=O)CC2)C(=O)c2ccccc2C1=O; test: as above
[19] = substrate: CC1=C(CCCCC(=O)NCCCCNCCCNC(=O)CCCCC2=C(C)C(=O)c3ccccc3C2=O)C(=O)c2ccccc2C1=O; test: as above
[20] = substrate: CC1=C(CCCCC(=O)NCCCNCCCNC(=O)CCCCC2=C(C)C(=O)c3ccccc3C2=O)C(=O)c2ccccc2C1=O; test: as above
[21] = substrate: CC1=C(CCCCCC(=O)NCCCNCCCNC(=O)CCCCCC2=C(C)C(=O)c3cccc(O)c3C2=O)C(=O)c2c(O)cccc2C1=O; test: as above

B1: Trypanothione reductase (Trypanosoma cruzi), P28593 (protein)
chain: MMSKIFDLVVIGAGSGGLEAAWNAATLYKKRVAVIDVQMVHGPPFFSALGGTCVNVGCVPKKLMVTGAQYMEHLRESAGFGWEFDRTTLRAEWKKLIAVKDEAVLNINKSYEEMFRDTEGLEFFLGWGSLESKNVVNVRESADPASAVKERLETENILLASGSWPHMPNIPGIEHCISSNEAFYLPEPPRRVLTVGGGFISVEFAGIFNAYKPKDGQVTLCYRGEMILRGFDHTLREELTKQLTANGIQILTKENPAKVELNADGSKSVTFESGKKMDFDLVMMAIGRSPRTKDLQLQNAGVMIKNGGVQVDEYSRTNVSNIYAIGDVTNRVMLTPVAINEAAALVDTVFGTNPRKTDHTRVASAVFSIPPIGTCGLIEEVASKRYEVVAVYLSSFTPLMHNISGSKYKTFVAKIITNHSDGTVLGVHLLGDNAPEIIQGVGICLKLNAKISDFYNTIGVHPTSAEELCSMRTPSYYYVKGEKMEKPSEASL
- Vmax [1]: 0.09 µM/min/mg
- Vmax [2]: 5.13 µM/min/mg
- Vmax [3]: 5.91 µM/min/mg
- Vmax [4]: 2.16 µM/min/mg
- Vmax [5]: 4.74 µM/min/mg
- Vmax [6]: 1.61 µM/min/mg
- Vmax [7]: 3.83 µM/min/mg
- Vmax [8]: 0.26 µM/min/mg
- Vmax [9]: 0.6 µM/min/mg
- Vmax [10]: 0.31 µM/min/mg
- Vmax [11]: 12.4 µM/min/mg
- Vmax [12]: 2.04 µM/min/mg
- Vmax (µM min-1 mg-1) [13]: 4.44
- Vmax [14]: 0.45 µM/min/mg
- Vmax [15]: 1.2 µM/min/mg
- Vmax [16]: 0.47 µM/min/mg
- Vmax [17]: 1.61 µM/min/mg
- Vmax [18]: 0.74 µM/min/mg
- Vmax [19]: 1.11 µM/min/mg
- Vmax [20]: 0.34 µM/min/mg
- Vmax [21]: 4.87 µM/min/mg
